Earlier results as cited in paper PMC4858162.

Biological target: DNA polymerase III beta sliding clamp (Escherichia coli) (UniProt P0A988)

Kd: < 0.06 nM
Substance: DNA polymerase III beta sliding clamp (from UniProt P0A988)
